The values that follow come from patent US20030032157A1, “Polypeptides interactive with Bcl-XL” (priority 2001, published 2003).

Where no end group is shown, it is not given here.

First the molecules themselves.
B1: SEQ ID NO 31 (peptide)
chain: MRDLPGHYYETLKFLVGHLKTIADHR
notes: mRNA display clone from a hypothetical or unknown polypeptide
B2: SEQ ID NO 30 (peptide)
chain: GLKLATVAASMDRVPKVTPSSAISSIARENHEPERLGLNGIAETT
notes: as for B1
B3: SEQ ID NO 29 (peptide)
chain: AGVFSAEPSPFPQTRRSMVFARHLREVGDEFRSRHLNSTDDADE
notes: as for B1
B4: SEQ ID NO 32 (peptide)
chain: CGGRMEDIPCSRVGHIYRKYVPYKVPAGVSLARNLKRVADWM
notes: as for B1
B5: SEQ ID NO 228 (peptide)
chain: TLRHWGLQFNTRFGV
notes: Second selection; clone from a hypothetical or unknown polypeptide
B6: SEQ ID NO 224 (peptide)
chain: KYQQLFEDIRW
notes: Second selection; clone from a known polypeptide
B7: SEQ ID NO 227 (peptide)
chain: MGDVVGFIDELEGAVSDLHRAL
notes: as for B5
B8: SEQ ID NO 229 (peptide)
chain: SRREEAWDALFRGI
notes: Second selection
B9: SEQ ID NO 230 (peptide)
chain: TLREIGDLYLTSILGRR
notes: Second selection
B10: Bim, clone T44 (peptide)
peptide: ASMRQAEPADMRPEIWIAQELRRIGDEFNAYYARE
notes: fragment limits not in text
B11: Toll-like receptor 3, clone U15 (peptide)
peptide: FWLEERDFEAGVFELEAIVNSIKRS
B12: Tumor protein HDCMB21P, clone V50 (peptide)
peptide: MFSDIYGIREIADGLCLEVEGKMVSRPE
B13: Novel protein I, clone C21 (peptide)
peptide: IAQATKATIDKWNCIKLKIFYTSKKEAS-{FLAG‑M2 epitope}
modifications: also: 35S-Met labelled in vitro translation product
B14: Novel protein D, clone T25 (peptide)
peptide: GTRISDMLKLIADTWQRNCCPA-{FLAG‑M2 epitope}
modifications: cysteine pairing not given here; also: 35S-Met labelled in vitro translation product
B15: Bcl-2 related protein BPR, clone Y75 (peptide)
peptide: TGKEAILRRLVALLEEEAEVINQKLASDPALRSKLVRLSSDSFAHL
notes: also called Bcl-2 related proline-rich protein BPR
B16: Bak, clone C32 (peptide)
peptide: GQVGRQLAIIGDDINRRK
B17: Syntaxin 4A, clone U58 (peptide)
peptide: ATRQALNEISARHSGIQQLERSIRELHDIFTFL
B18: Talin (splice variant), clone X56 (peptide)
peptide: GGESDTDPHFQDALMQLAKAVASAAAALVLKAKSVAQR-{FLAG‑M2 epitope}
modifications: also: 35S-Met labelled in vitro translation product
notes: fragment limits not in text; also called selected Talin fragment
B19: Voltage dependent anion channel 3, clone W06 (peptide)
peptide: MKWDTDNTLGTEISWENKLAEGLKLTLDTIFVHHVLHAPH-{FLAG‑M2 epitope}
modifications: also: 35S-Met labelled in vitro translation product
B20: HSPC300, clone C68 (peptide)
peptide: AVQEDPVQREIHQDWANREYIEIITSSIKKIAD
notes: also called HSCP300
B21: Golgi SNAP receptor complex member 1, clone V06 (peptide)
peptide: GTRQDRMFETMAIEIEQLLARLTGVNDKMAEYTNA
B22: Bax, clone C49 (peptide, UniProt Q07812 58-89, looked up)
peptide: KLSECLKRIGDELDSNMELQRMIAAVDTDSPR
B23: Neutrophil cytosolic factor 2, clone T95 (peptide)
peptide: QRGMLYYQTEKYDLAIKDLKEALIQLRGNN
notes: fragment limits not in text
B24: SEQ ID NO 33 (peptide)
chain: ALSWIEMDTEMEMLLARFRRTPGDLHLDHSVHLCAHP
notes: as for B1
B25: SEQ ID NO 6 (peptide)
chain: GGESDTDPHFQDALMQLAKAVASAAAALVLKAKSVAQR
notes: mRNA display clone from a known polypeptide
B26: SEQ ID NO 12 (peptide)
chain: MKWDTDNTLGTEISWENKLAEGLKLTLDTIFVHHVLHAPH
notes: as for B25
B27: proline/glutamine rich splicing factor cluster polypeptide (peptide)
chain: RGLWVDRVLEEWGLEPRQ
notes: Selected clone translated from the incorrect reading frame of the parent mRNA; not further characterized
B28: clone x42 (cDNA FLJ23277, Clone HEP03322) (peptide)
chain: NGNLFASFIADS
notes: as for B1

T2 sequence (Q07817 1-211): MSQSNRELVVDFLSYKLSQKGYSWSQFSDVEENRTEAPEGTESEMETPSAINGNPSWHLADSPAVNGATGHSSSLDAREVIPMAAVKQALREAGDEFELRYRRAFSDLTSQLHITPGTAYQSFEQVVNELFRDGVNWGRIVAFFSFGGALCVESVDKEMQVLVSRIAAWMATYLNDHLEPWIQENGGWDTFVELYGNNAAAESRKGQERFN

One test deals with T1, human Bcl-XL-GST fusion protein (human, UniProt P08515 1-218 = GST; Q07817 1-211).
T1 construct: Made in E. coli, immobilized on glutathione Sepharose beads; whole entry named; also called Bcl-XL-glutathione S-transferase (GST) fusion protein; GST-BCL-XL
T1 sequence (P08515 1-218, tags or fused parts left off): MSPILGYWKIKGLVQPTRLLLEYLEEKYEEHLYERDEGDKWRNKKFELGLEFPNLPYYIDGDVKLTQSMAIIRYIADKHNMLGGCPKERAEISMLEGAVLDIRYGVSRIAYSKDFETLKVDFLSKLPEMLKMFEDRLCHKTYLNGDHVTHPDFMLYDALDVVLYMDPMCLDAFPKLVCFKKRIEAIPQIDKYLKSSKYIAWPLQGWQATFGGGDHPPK
Description: mRNA display selection on immobilized Bcl-XL-GST.
Conditions: not given
As to the method:
(§1) Detection of a polypeptide binding to a Bcl-XL-glutathione S-transferase (GST) fusion protein was carried out as follows. Twenty microliters of glutathione Sepharose 4B slurry (AP Biotech) was aliquoted to a microcentrifuge tube and washed with PBS. The Bcl-XL-GST fusion protein (60 μg), prepared as describe above, was added and allowed to bind to the Sepharose beads for 1 hr at 4° C. The beads were then re-washed in selection buffer (50 mM Tris-HCL pH 7.5, 150 mM KCl, 0.05% Triton X-100, 0.5 mg/ml BSA, and 0.1 mg/ml salmon sperm DNA). The Bcl-XL-GST beads were resuspended in 100 μl of selection buffer (approximately 11.5 μM Bcl-XL) and ³⁵S-labeled mRNA display construct or free peptide was added (approximately 10-60 nM) and incubated on a rotator for 1 hr at 4° C. The reaction was then transferred to a microcentrifuge column (BioRad) and unbound mRNA display constructs or free peptides were removed by a 10 sec spin at 1,000 rpm. The Sepharose beads were then washed three times with 500 μl of selection buffer. The extent of binding between the Bcl-XL-GST fusion protein and the mRNA display constructs or free peptides was determined by scintillation counting each fraction, including the recovered beads.
A human Bcl-XL-GST fusion protein was immobilized on Sepharose beads as described above for the binding assay and incubated with the mRNA display library. For the first round of selection, the input was approximately 0.06 pmol of each of the four source labeled libraries from human tissues (kidney, liver, bone marrow, and brain), which were mixed prior to selection. For subsequent rounds of selection, the input of each of the four source labeled libraries ranged from 0.25 to 0.92 pmol in total. After washing the beads of any unbound nucleic acid-protein fusion library members, the cDNA strand of the bound fusions were recovered in three elutions with 100 μl of 0.1N KOH. Eluates were subsequently neutralized by the addition of 2 μl of 1N Tris-HCL pH 7 and 8 μl of 1N HCL. A small scale PCR optimization was performed with the eluate to determine the number of cycles required to produce a strong signal without overamplification (typically 18-28 cycles). The library was then regenerated by PCR using the remainder of the eluate.
As to B1, the binding result is given as “binds”.
Take B2: the binding result is recorded as “binds”.
For the molecule B3, the binding result is given as “binds”.
On to B4, for which the binding result is “binds”.

The next test addresses T1, human Bcl-XL-GST fusion protein. Briefly: second mRNA display selection on immobilized Bcl-XL-GST.
Conditions: not given
For the molecule B5, the binding result was “binds”.
For B6, the binding result is reported as “binds”.
Turning to B7, the binding result is “binds”.
For the molecule B8, the binding result is listed as “binds”.
On the same count and under the same terms, as for B9, the entry is “binds”.

The target is the same in another test. Briefly: 35S-labeled free peptide on Bcl-XL-GST beads, target concentration varied, scintillation counting; relative Kd.
Conditions: not given
Here is the method: as §1
Purified radioactively labeled protein from the individual clones was incubated with immobilized Bcl-XL-GST for one hour and, after washing, the amount bound was determined by scintillation counting. The binding at each concentration was normalized to that at the highest concentration and plotted versus concentration. FIG. 5 is a representational plot of the results of this binding assay. A selected Bak fragment ([…]; SEQ ID NO: 152), containing a FLAG-M2 epitope, was synthetically produced as a free protein and used in a binding assay in which the concentration of immobilized Bcl-XL-GST was varied from 11 nM to 28 μM. The amount of peptide bound to Bcl-XL was determined by scintillation counting and normalized to that bound at the highest concentration. Normalized binding was then plotted versus Bcl-XL concentration and fit to a binding curve using nonlinear regression. […] However, only binding curves that gave a high correlation coefficient ® value) were used to determine an affinity.
Regarding B10, the Kd was 0.002 µM.
Turning to B11, binding was characterised by a dissociation constant (Kd) of 0.781 µM.
B12 came in with a Kd of 0.69 µM.
In the case of B13, the affinity, expressed as Kd, was 0.07 µM.
B14 showed a Kd of 1.61 µM.
Molecule B15 yielded a Kd of 0.42 µM.
The molecule B16 came in with a Kd of 0.402 µM.
Same read-out and setting: the result for B17 reads 0.64 µM.
Take B18: binding was put at a Kd of 0.093 µM.
B19 yielded a Kd of 1.12 µM.
Consider B20, for which the affinity, expressed as Kd, was 0.58 µM.
Regarding B21, the affinity, expressed as Kd, was 0.467 µM.
B22 returned a Kd of 0.76 µM.
The same measure, in the same setting: as for B23, the figure is 0.00416 µM.

Another test concerns the target T2, BH3 domain binding site on Bcl-XL (Homo sapiens, UniProt Q07817).
T2 construct: made in house; host or cells: E. coli BL21 (DE3) pLysS
Description: Competition assay with Bak BH3 domain peptide in the Bcl-XL binding assay. As to conditions: 20 μM Bak BH3 competitor (SEQ ID NO: 152); 100 μM for some polypeptides. As to the method: (§2) Only three of the selected proteins (Bim, Bak, and Bax) were previously known to contain a BH3 domain. In order to determine if the other proteins bound to the BH3 domain binding site on Bcl-XL, a competition assay was performed. The Bak BH3 domain peptide used as a positive control was prepared by chemical synthesis and used to compete with individual Bcl-XL-binding polypeptides in a Bcl-XL binding assay. […] At a fixed concentration of immobilized Bcl-XL, the Bak BH3 domain-containing peptide […] (SEQ ID NO: 152), also containing a FLAG-M2 epitope, was added at the indicated concentration along with a trace amount of a selected Talin fragment. After binding for 1 hour, the unbound material was removed and the bound protein was quantitated. The bound protein was assayed by scintillation counting, normalized to that bound in the absence of competitor, and plotted versus competitor concentration.
A competition assay was performed for each of the selected Bcl-XL-binding polypeptides using 20 μM Bak BH3 competitor based on the titration shown in FIG. 6. Due to poor competition with the Bcl-XL-binding polypeptides having the lowest Kd values (as determined above) a second competition was performed for some of these polypeptides using 100 μM competitor (FIG. 3A).
For the molecule “t53: selected Bcl-XL-binding polypeptide, SEQ ID NO: 25 (LDPVKDVLILSALRRMLWAADDFLEDLPFEQIG; listed as Homo sapiens)”, the “competition by Bak BH3 domain (BakBH3 effect), bound normalized to reaction without competitor” value is recorded as “not competed at all”.
For the molecule “w75: selected Bcl-XL-binding polypeptide, SEQ ID NO: 37 (RTLQPRLLQNQQQHLPALPIWFLLQWLRLHPL; listed as Homo sapiens)”, the “competition by Bak BH3 domain (BakBH3 effect), bound normalized to reaction without competitor” value is “not competed at all”.
On the same count and under the same terms, as for “x42: selected polypeptide, SEQ ID NO: 35; cDNA FLJ23277, Clone HEP03322 (Table 1) (NGNLFASFIADS)”, the entry is “not competed at all”.

The target of a further test is T1, human Bcl-XL-GST fusion protein. Description: free peptide on immobilized Bcl-XL-GST with Bak BH3 competitor.
Conditions: not given
Here is the method: as §2
A competition assay was performed for each of the selected Bcl-XL-binding polypeptides using 20 μM Bak BH3 competitor based on the titration shown in FIG. 6.
For the molecule B24, the binding result is recorded as “binds”.
As to B25, the binding result was “binds”.
On the same count and under the same terms, as for B26, the entry is “binds”.

A further test has the same target. Description: mRNA display selection on immobilized Bcl-XL-GST; cluster found among sequenced clones.
Conditions: not given
For the molecule B27, the binding result is recorded as “binds”.
With B28, the binding result is recorded as “binds”.
